# According to the supplement of paper PMC9112550, “Optimization of the antimicrobial peptide Bac7 by deep mutational scanning” (BMC Biology, 2022):
# Test system: Escherichia coli TOP10
# Test: shrunken log2 fold change of peptide-encoding DNA abundance (4.5 h post-induction vs induction); higher = less antimicrobial activity (less host growth inhibition)
# Conditions: time post-induction: 4.5 h; library: site-saturation at positions 5, 18, 19, 20
# 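Further: peptides expressed intracellularly from a pBAD plasmid library in pooled LB shake-flask culture, induced with 0.3% L-arabinose, DNA abundance read by NGS, three biological replicates, DESeq2 with apeglm shrinkage.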
row,Sequence,shrunken log2 fold change
1,RRIRFRPPRLPRPRPRPLDCPRP,-0.112
2,RRIRGRPPRLPRPRPRPGEHPRP,0.587
3,RRIRKRPPRLPRPRPRPYFPPRP,-0.348
4,RRIRWRPPRLPRPRPRPEVFPRP,1.35
5,RRIRIRPPRLPRPRPRPHHFPRP,-0.313
6,RRIRMRPPRLPRPRPRPDWDPRP,0.211
7,RRIRKRPPRLPRPRPRPMVCPRP,0.00938
8,RRIRKRPPRLPRPRPRPPTKPRP,0.12
9,RRIRLRPPRLPRPRPRPPFLPRP,0.105
10,RRIRVRPPRLPRPRPRPKKDPRP,-0.262
11,RRIRNRPPRLPRPRPRPLATPRP,0.292
12,RRIRARPPRLPRPRPRPICIPRP,0.227
13,RRIRHRPPRLPRPRPRPRYNPRP,-0.591
14,RRIRWRPPRLPRPRPRPRRIPRP,0.109
15,RRIRERPPRLPRPRPRPMTNPRP,-0.112
16,RRIRCRPPRLPRPRPRPNEVPRP,-0.153
17,RRIRTRPPRLPRPRPRPKKPPRP,-0.0293
18,RRIRNRPPRLPRPRPRPYWIPRP,-1.71
19,RRIRYRPPRLPRPRPRPNESPRP,0.0169
20,RRIRNRPPRLPRPRPRPLQHPRP,0.198
21,RRIRSRPPRLPRPRPRPLADPRP,-0.0259
22,RRIRARPPRLPRPRPRPDEGPRP,0.37
23,RRIRIRPPRLPRPRPRPCFFPRP,-0.503
24,RRIRDRPPRLPRPRPRPSPVPRP,0.0438
25,RRIRLRPPRLPRPRPRPSPNPRP,-0.183

row,Sequence,shrunken log2 fold change
1,RRIRQRPPRLPRPRPRPVSWPRP,1.47
2,RRIRNRPPRLPRPRPRPSYLPRP,-0.959
3,RRIRHRPPRLPRPRPRPTMVPRP,-0.224
4,RRIRIRPPRLPRPRPRPTAQPRP,0.154
5,RRIRARPPRLPRPRPRPEDAPRP,0.894
6,RRIRKRPPRLPRPRPRPCDTPRP,0.015
7,RRIRIRPPRLPRPRPRPYYMPRP,-0.983
8,RRIRGRPPRLPRPRPRPLQHPRP,1.18
9,RRIRYRPPRLPRPRPRPREKPRP,0.124
10,RRIRLRPPRLPRPRPRPKKPPRP,0.0873
11,RRIRGRPPRLPRPRPRPVRKPRP,1.72
12,RRIRVRPPRLPRPRPRPSVHPRP,-0.0573
13,RRIRKRPPRLPRPRPRPMCDPRP,-0.0708
14,RRIRDRPPRLPRPRPRPSRHPRP,0.0369
15,RRIRFRPPRLPRPRPRPCKDPRP,-0.198
16,RRIRQRPPRLPRPRPRPRMCPRP,0.0318
17,RRIRDRPPRLPRPRPRPAWCPRP,0.183
18,RRIRPRPPRLPRPRPRPYCYPRP,-0.798
19,RRIRLRPPRLPRPRPRPSRGPRP,0.0578
20,RRIRMRPPRLPRPRPRPGGPPRP,0.119
21,RRIRKRPPRLPRPRPRPYLNPRP,-0.362
22,RRIRARPPRLPRPRPRPPVMPRP,0.395
23,RRIRWRPPRLPRPRPRPHTCPRP,-0.00188
24,RRIRHRPPRLPRPRPRPPMKPRP,-0.278
25,RRIRHRPPRLPRPRPRPILGPRP,-0.0179

row,Sequence,shrunken log2 fold change
1,RRIRARPPRLPRPRPRPGNNPRP,-0.0708
2,RRIRRRPPRLPRPRPRPSIGPRP,-0.0466
3,RRIRGRPPRLPRPRPRPAWSPRP,0.929
4,RRIRLRPPRLPRPRPRPEWDPRP,0.273
5,RRIRRRPPRLPRPRPRPAVFPRP,0.45
6,RRIRQRPPRLPRPRPRPGAAPRP,0.553
7,RRIRNRPPRLPRPRPRPVACPRP,-0.0504
8,RRIRMRPPRLPRPRPRPFDTPRP,-0.0634
9,RRIRARPPRLPRPRPRPQFKPRP,-0.0331
10,RRIRHRPPRLPRPRPRPGAGPRP,0.395
11,RRIRMRPPRLPRPRPRPTDEPRP,0.116
12,RRIRPRPPRLPRPRPRPLVIPRP,-0.509
13,RRIRCRPPRLPRPRPRPRRRPRP,0.496
14,RRIRDRPPRLPRPRPRPASRPRP,0.17
15,RRIRSRPPRLPRPRPRPNVNPRP,0.259
16,RRIRPRPPRLPRPRPRPPLEPRP,0.179
17,RRIRTRPPRLPRPRPRPIPRPRP,0.299
18,RRIRRRPPRLPRPRPRPKRAPRP,0.52
19,RRIRYRPPRLPRPRPRPCETPRP,0.00591
20,RRIRMRPPRLPRPRPRPYLEPRP,-0.0515
21,RRIRIRPPRLPRPRPRPFTSPRP,-0.475
22,RRIRSRPPRLPRPRPRPALHPRP,0.16
23,RRIRPRPPRLPRPRPRPCPVPRP,-0.0845
24,RRIRVRPPRLPRPRPRPDPQPRP,0.52
25,RRIRIRPPRLPRPRPRPMYWPRP,-0.291

row,Sequence,shrunken log2 fold change
1,RRIRTRPPRLPRPRPRPYFMPRP,-0.836
2,RRIRYRPPRLPRPRPRPWSCPRP,-0.171
3,RRIRDRPPRLPRPRPRPEAVPRP,0.0262
4,RRIRIRPPRLPRPRPRPTGKPRP,-0.129
5,RRIRNRPPRLPRPRPRPLPHPRP,-0.387
6,RRIRSRPPRLPRPRPRPMAPPRP,0.257
7,RRIRSRPPRLPRPRPRPWLDPRP,-0.0811
8,RRIRGRPPRLPRPRPRPGFMPRP,0.488
9,RRIRDRPPRLPRPRPRPIDGPRP,0.0392
10,RRIRLRPPRLPRPRPRPDYDPRP,-0.496
11,RRIRCRPPRLPRPRPRPWSRPRP,-0.391
12,RRIRSRPPRLPRPRPRPGMIPRP,-0.296
13,RRIRRRPPRLPRPRPRPTLVPRP,0.315
14,RRIRDRPPRLPRPRPRPNVDPRP,0.0276
15,RRIRGRPPRLPRPRPRPAGQPRP,0.727
16,RRIRYRPPRLPRPRPRPQILPRP,-0.0395
17,RRIRTRPPRLPRPRPRPRALPRP,0.116
18,RRIRFRPPRLPRPRPRPMCKPRP,-0.169
19,RRIRRRPPRLPRPRPRPGWVPRP,0.359
20,RRIRQRPPRLPRPRPRPSFYPRP,-0.653
21,RRIRARPPRLPRPRPRPDWRPRP,0.146
22,RRIRCRPPRLPRPRPRPPSSPRP,-0.0857
23,RRIRYRPPRLPRPRPRPYINPRP,-1.69
24,RRIRARPPRLPRPRPRPEAQPRP,1.66
25,RRIRVRPPRLPRPRPRPCRKPRP,0.068

row,Sequence,shrunken log2 fold change
1,RRIRHRPPRLPRPRPRPKDWPRP,0.207
2,RRIRQRPPRLPRPRPRPYYNPRP,-0.392
3,RRIRPRPPRLPRPRPRPHVAPRP,0.218
4,RRIRKRPPRLPRPRPRPYTIPRP,-0.0634
5,RRIRSRPPRLPRPRPRPERDPRP,0.138
6,RRIRCRPPRLPRPRPRPENEPRP,0.113
7,RRIRKRPPRLPRPRPRPEQRPRP,0.431
8,RRIRWRPPRLPRPRPRPHWLPRP,0.243
9,RRIRMRPPRLPRPRPRPCSGPRP,-0.146
10,RRIRDRPPRLPRPRPRPDQYPRP,0.00642
11,RRIRVRPPRLPRPRPRPISNPRP,-0.512
12,RRIRFRPPRLPRPRPRPQLTPRP,-0.527
13,RRIRLRPPRLPRPRPRPHDFPRP,-0.205
14,RRIRVRPPRLPRPRPRPADKPRP,-0.0503
15,RRIRPRPPRLPRPRPRPPYCPRP,-0.12
16,RRIRYRPPRLPRPRPRPVPHPRP,-0.262
17,RRIRYRPPRLPRPRPRPRVIPRP,-0.0396
18,RRIRERPPRLPRPRPRPAMPPRP,-0.0115
19,RRIRIRPPRLPRPRPRPNDLPRP,-0.16
20,RRIRGRPPRLPRPRPRPMCQPRP,0.62
21,RRIRERPPRLPRPRPRPVTSPRP,-0.23
22,RRIRDRPPRLPRPRPRPRNDPRP,-0.461
23,RRIRHRPPRLPRPRPRPGYRPRP,-0.00177
24,RRIRLRPPRLPRPRPRPNVVPRP,-0.19
25,RRIRFRPPRLPRPRPRPDDYPRP,-0.0193

row,Sequence,shrunken log2 fold change
1,RRIRPRPPRLPRPRPRPDTNPRP,-0.239
2,RRIRTRPPRLPRPRPRPAWFPRP,0.131
3,RRIRWRPPRLPRPRPRPQTQPRP,0.516
4,RRIRVRPPRLPRPRPRPHPHPRP,-0.161
5,RRIRDRPPRLPRPRPRPNFLPRP,-0.277
6,RRIRQRPPRLPRPRPRPGWVPRP,-0.124
7,RRIRCRPPRLPRPRPRPLGIPRP,-0.149
8,RRIRIRPPRLPRPRPRPDKCPRP,-0.0188
9,RRIRVRPPRLPRPRPRPGDAPRP,0.0792
10,RRIRMRPPRLPRPRPRPQAHPRP,0.0821
11,RRIRDRPPRLPRPRPRPFKWPRP,-0.0034
12,RRIRRRPPRLPRPRPRPLDCPRP,0.107
13,RRIRLRPPRLPRPRPRPTEEPRP,-0.0651
14,RRIRKRPPRLPRPRPRPYEVPRP,-0.205
15,RRIRLRPPRLPRPRPRPPTCPRP,0.192
16,RRIRWRPPRLPRPRPRPNFVPRP,0.292
17,RRIRKRPPRLPRPRPRPFDAPRP,0.337
18,RRIRNRPPRLPRPRPRPLAEPRP,0.108
19,RRIRYRPPRLPRPRPRPAPGPRP,0.391
20,RRIRHRPPRLPRPRPRPTNTPRP,-0.384
21,RRIRFRPPRLPRPRPRPDESPRP,-0.0167
22,RRIRRRPPRLPRPRPRPQFIPRP,-0.387
23,RRIRDRPPRLPRPRPRPDYVPRP,-0.0518
24,RRIRERPPRLPRPRPRPEGTPRP,-0.0267
25,RRIRLRPPRLPRPRPRPYMEPRP,0.039
